What was measured:
[1] = biological target: T1, gastrin-releasing peptide receptor (GRPR) (UniProt P30550 1-384, limits assumed); test: Scatchard plot experiments, GRPR on cancer cell lines
T1 construct: whole, on cells; Endogenous receptor on PC3 and H441 cells, xenograft tumors or PC3 cell lysate; the cell lines are human; also called GRP receptor

[2] = biological target: T1, gastrin-releasing peptide receptor …; test: Scatchard plot from absorbance-based assay on wells of PC3 cell lysate; Kd of this variant not given

T1 sequence (P30550 whole entry): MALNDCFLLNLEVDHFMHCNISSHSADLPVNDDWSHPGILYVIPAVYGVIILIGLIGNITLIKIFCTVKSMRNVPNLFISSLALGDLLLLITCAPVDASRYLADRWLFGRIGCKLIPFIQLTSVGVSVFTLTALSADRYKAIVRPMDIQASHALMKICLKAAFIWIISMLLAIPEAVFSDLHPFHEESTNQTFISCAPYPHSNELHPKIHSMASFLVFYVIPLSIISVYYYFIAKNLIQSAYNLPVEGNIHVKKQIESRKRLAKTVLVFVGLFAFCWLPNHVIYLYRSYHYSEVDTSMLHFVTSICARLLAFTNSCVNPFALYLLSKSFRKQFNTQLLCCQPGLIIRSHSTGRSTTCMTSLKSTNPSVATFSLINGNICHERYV

Row | binding result [1] | binding result [2] | Binder
1 | binds | – | ProCA1.B10 (designed binder) RDSGTVWGALGHGIELNIPNFQMTDDIDEVRWERGSTLVAEFKRKMKPFLKSGGSGGGNQWAVGHLMGGSGGAFEIDANGDLDIKNLTRDDSGTYNVTVYSTNGTRILNKALDLRILE
2 | – | binds | ProCA1.G10 (designed binder) RDSGTVWGALGHGIELNIPNFQMTDDIDEVRWERGSTLVAEFKRKMKPFLKSGGSGGGNHWAVGHLMGGSGGAFEIDANGDLDIKNLTRDDSGTYNVTVYSTNGTRILNKALDLRILE

— patent publication US9956304 (GEORGIA STATE UNIVERSITY RESEARCH FOUNDATION, dated 2018)
